According to US20150239961A1:

Assays:
[1] = target: HIV-1 B.JRFL gp120 Env (HIV-1 B.JRFL); experiment: blocking assay on JRFL gp120, competitor b12
[2] = target: Env on the surface of HIV-1 AE.CM235-infected cells (HIV-1 AE.CM235); experiment: cell-based or functional assay
[3] = target: HIV-1 AE.A244 gp120 envelope glycoprotein (HIV-1 AE.A244); experiment: blocking assay on A244 gp120, competitor sCD4
[4] = target: recombinant AE.A244 Δ11 gp120 (HIV-1 AE.A244); experiment: SPR (BIAcore 3000), mAb captured by anti-human Ig Fc, gp120 in flow
[5] = target: recombinant AE.A244 Δ11 gp120 (HIV-1 AE.A244); experiment: SPR synergy assay (BIAcore 4000), CH58 immobilized on CM5 chip, mAb-gp120 complex injected
[6] = target: Env on the surface of HIV-1 AE.92TH023-infected primary CD4+ T cells (HIV-1 AE.92TH023); experiment: flow cytometry, Alexa Fluor 488-CH58 with CH90 F(ab), HIV-1-infected CD4+ T cells (FIG. 14B-E)
[7] = target: Env on the surface of HIV-1 AE.CM235-infected cells (HIV-1 AE.CM235); experiment: as above
[8] = target: Env on the surface of HIV-1 AE.CM235-infected cells (HIV-1 AE.CM235); experiment: flow cytometry, Alexa Fluor 488-CH58 with unconjugated mAb, 10 µg/ml each, AE.CM235-infected CD4+ T cells
[9] = target: Env on the surface of HIV-1 AE.92TH023-infected primary CD4+ T cells (HIV-1 AE.92TH023); experiment: flow cytometry, Alexa Fluor 488-CH58 with unconjugated mAb, 10 µg/ml each, AE.92TH023-infected CD4+ T cells
[10] = target: HIV-1 B.JRFL gp120 Env (HIV-1 B.JRFL); experiment: blocking assay on JRFL gp120, competitor sCD4

A32 (antibody)
% blocking of b12 binding [1]: 23%
ADCC EC (3 hr Luciferase ADCC) [2]: 0.003 µg/mL
maximum % GzB activity (ADCC-CM235 assay) [2]: 16%
% blocking of sCD4 binding [3]: 29%
Kd [4]: 0.7 nM
koff [4]: 0.00015 s⁻¹
kon [4]: 223000 M⁻¹ s⁻¹

A32 Fab
inhibition of the ADCC activity mediated by 19/20 non-V3 mAbs (ADCC-CM235 assay) [2]: 73 to 100%

CH58 (antibody)
% increase in binding with gp120 pre-incubated with CH54, against gp120 with murine 16H3 mAb [5]: 14%
% increase in binding with gp120 pre-incubated with CH57, against gp120 with murine 16H3 mAb [5]: 59%
% increase in binding with gp120 pre-incubated with CH90, against gp120 with murine 16H3 mAb [5]: 12%
% enhancement of CH58 binding in the presence of CH90 F(ab) [6]: < 10%
% enhancement of CH58 binding in the presence of CH90 F(ab) [7]: < 10%
% Max Killing, mAb alone (Luciferase ADCC) [2]: 18.8%
ADCC EC (3 hr Luciferase ADCC) [2]: 9.68 µg/mL
EC, mAb alone (Luciferase ADCC) [2]: 9.13 µg/mL
PC75, mAb alone (Luciferase ADCC) [2]: 31.4 µg/mL
% increase in frequency of infected cells recognized by CH58 and in MFI in the presence of A32 [8]: < 45%
% increase of CH58 binding in the presence of CH54 [8]: > 20%
% increase of CH58 binding in the presence of CH57 [8]: > 25%
% increase of CH58 binding in the presence of CH90 [8]: > 35%
Kd [4]: 1 nM
koff [4]: 0.00023 s⁻¹
kon [4]: 226000 M⁻¹ s⁻¹
% increase in the frequency of cells recognized by CH58 in the presence of A32, against CH58 alone [9]: > 40%
% increase in the frequency of cells recognized by CH58 in the presence of CH57, against CH58 alone [9]: > 40%
% increase in the frequency of cells recognized by CH58 in the presence of CH90, against CH58 alone [9]: > 40%

VRC-CH31 (antibody)
% blocking of b12 binding [1]: 70%
% blocking of sCD4 binding [3]: 97%
% blocking of sCD4 binding [10]: 67%
